Experiment: yeast display, Sf9 membrane polyspecificity reagent, FACS + sequencing; frameworks hold sequencing errors
Outline: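 Synthetic nanobody libraries on Saccharomyces cerevisiae BJ5465 were galactose-induced for 36–48 hours, stained 1 hour at 4 °C with 10% biotinylated, detergent-solubilized Sf9 membrane reagent and enriched on streptavidin microbeads. FACS then separated cells into low and high (top ~1%) gates by anti-HA (expression) and streptavidin (reagent binding) fluorescence. Genes were colony-PCR amplified, MiSeq 2 × 250 sequenced and CDR-length filtered. A clone's polyreactivity label is that of its gate of origin.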

Sequence | polyreactivity (PSR sort gate)
QVQLVESGGGLVQAGGILRLSCAASGLIFPPNAMGWYRQAPGKERELVASITRSGGSTYYADSVKGRFTISRDNAKNTVYLQMNSLKPEDTAVYYCAAYLDTSRYGVLYDYWGQGTQVTVSS | low polyreactivity
QVQLVESGGGLVQAGGILRLSCAASGNIFESYGMGWYRQAPGKERELVAANSYSGGTTYYADSVKGRFTFSRDNEKNTVYLQMNSLKPEDTAVYYCAARLHHFFTYDYWGQGTQVTVSS | low polyreactivity
QVQLVESGGGLVQAGGILRLSCAASGQIFTYYVMGWYRQAPGKERELVAAIDWDSGSTSYADSLKGRFTISRDNAKNTVYLQMNSLKPEDTAVYYCAADEVLSGYYTLDYWGQGTQVTVSS | low polyreactivity
QVQLVESGGGLVQAGGILRLSCAASGRIFHWYAMGWYRQAPGKERELVDAITDGYSTYYADSVNGRYKISRDNAKNTVYLQMNSLKPEETAVYYCAADVGYSPYVFGVTRYYKYDYWGQGTQVTVSS | low polyreactivity
QVQLVESGGGLVQAGGILRLSCAASGRIFKDNAMGWYRLAPGKERELVATIDSGGDTNYADSVKGRFTISRDNAKNTVYLQMNSLKPEDTAVYYSNTEGFLSAVYAFGYWGQGTQVTVSS | low polyreactivity
QVQLVESGGGLVQAGGILRLSCAASGRIFPKYAMGWYRQAPGKERELVAAIRWSGGNTYYADSVKGRFTISRDNAKNTVYLQMNSLKPEDTAVYYCAATPYVSKYYYFGHDYWGQGTQVTVSS | high polyreactivity
QVQLVESGGGLVQAGGILRLSCAASGRIFTRYSLGWYRPAPGKESELVAAISSGGSTYYADSVKGRFTISRDNAKNTVYLQMNSLKPEDTAVYYSAAKTRPQRTFSTRQQMNYWGQGTQVTVSS | high polyreactivity
QVQLVESGGGLVQAGGILRLSCAASGRIFYYNTMGWYRQAPGKERELVAAITRGGGRTYYADSVKGRFTISRDNAKNTVYLQMNSLKPEDTAVYYCNTRSTLGYYWGQGTQVTVSS | high polyreactivity
QVQLVESGGGLVQAGGILRLSCAASGRTFVLNAMGRYRQAPGKERELVAAITSGGSTYYADSVKGRFTISRDNAKNTVYLQMNMLKPEDTAVYYCAVTYKGDSSWPGDYWGQCTQVTVSS | low polyreactivity
QVQLVESGGGLVQAGGILRLSCAASGRTFYYYAMGWYRQAPGKERELVAAISWGGGRTYYADSVKGRFTISRDNAKNTVYLHMNSLKPEDTAVYYCDTTAYNGYDYWGQGTQVTVSS | high polyreactivity
QVQLVESGGGLVQAGGILRLSCAASGSIFLGNAMGWYRQAPGKERELVAVINSGGDTNYADSVKGRFTISRDNAKNTVYLQMNSLKPEDTAVYYCARRKGKWDSYGGWGQGTQETVSS | low polyreactivity
QVQLVESGGGLVQAGGILRLSCAASGSIFPYYAMGWYRQAPGKERELVATITSRGGSTYYADSVKGRFTISRDNAKNTVYLQMNSLKPEDTAVYYCNTLQPYLYDYWGQGTQVTVSS | high polyreactivity
QVQLVESGGGLVQAGGILRLSCAASGSIFYRNAMGWYRQAPGKERELVAAISARGGRTNYADSVKGRFTISRDNAKYTVYLQMNSLKPEDTAVYYCNTADSWYHRSQAYDYWGQGTQVTVSS | high polyreactivity
QVQLVESGGGLVQAGGILRLSCAASGSTFGRYAIGWYRPAPGTERELVAAISRRGGSTYYADSVKWRFTISRDNAKNNVYLQMYSLKPVDTAVYYCAADDVRTSGCHFDYWGDGTQVTVSS | high polyreactivity
QVQLVESGGGLVQAGGILRLSCAASGSTFSSNAMGWYRQAPGKERELVAAISKRGGRTYYADSVKGRFTISRDNAKNTVYLQMNSLKPEDTAVYYCAAEYWVPAWKFGYEYWGQGTQVTVSS | high polyreactivity
QVQLVESGGGLVQAGGILRLSCAASGSTFTDSDMGWYRQAPGKERELVAAITSGGSTNYADSVKGRFTISLDNAKYTVYLPMNSLKPEDSAVYYCAAADADRKYDYWGQGTQVTVSS | low polyreactivity
QVQLVESGGGLVQAGGILRLSCAASGSTISYNAMGWYRQAPGKERELVAAINYSGGNTNYADSVKGRFTISRDNAKNTVYLQMNSLKPEDTAVYYCAARWWSGYGYWGQGTQVTVSS | high polyreactivity
QVQLVESGGGLVQAGGILRLSCASSGNIFDRYAMGWYRQAPGKERELVAGITWSGGSTYYADSVKGRFTISRDNEKNTVYLQMNSLKPEDTAVYYCGQANYYWGQGTQVTVSA | low polyreactivity
QVQLVESGGGLVQAGGILRLSCSASGRTLPAYVMGWYRQAPGKERELVAAITSGGGGTYFADSVKGRFTISRDNAKNTVYLQMNSMKPEDTAVYYCATTGNFFHYVYDFDYYYWGQGTQVTLSS | low polyreactivity
QVQLVESGGGLVQAGGILRLSSAASGRTILSYAMGWYRQAPGKERELVAAITRSGGGTFYADSVKGRFTLSRDNAKNTVYVQMNSLKPEDTAVYYCAARYYNYASPTRFKYNYWGQGTQVTVSS | high polyreactivity
QVQLVESGGGLVQAGGILSLSCAASGFIFLYNMGWYRQAPGKEWQLVADISTGVSTNYADSVKGRFTISRDNAKNSVYLQMNSLKPEDTAVYYCAAVYYNGYQYEPWYDYWGQGTQVTVSS | low polyreactivity

Sequence | polyreactivity (PSR sort gate)
QVQLVESGGGLVQAGGPLRLSCAASGRIFWPYTMGWYRQTPGKERELVAVITYSGGSTYYADSVKGRFTISRDNAKNTVYFQMNSLKPEDTAVYYCNAGIRFYLHAHGYYWGQGTQVTVSS | high polyreactivity
QVQLVESGGGLVQAGGRHRLSCAASGSTLTRNTMGWYRQAPGIQRELVATITRSGGSTYYADSVKGRFTISRDNAKNTVYLQMNSLKPEDTAVYYCAVRRQTFRYVYPGMDYWGQGTQETVSS | high polyreactivity
QVQLVESGGGLVQAGGRHRLTCAASGRILGYYAMGWYRQAPGKQRELVAAITRGGTTNYADSVKGRFTISRDNAMNTVYLQKNSQKPEDSAGYYCAADLARYGKRYDFWGQGTQVTLSS | low polyreactivity
QVQLVESGGGLVQAGGRLLLSCAASGFIFYSNAMGWYRQAPGKERELVAAISRSGGSTYYADSVKGRFTISRDNAMNTVFLQMNSLKPEDTAVYYCNADYVYRRYGYWGQGTQVNVSS | high polyreactivity
QVQLVESGGGLVQAGGRLLLSCAASGFTFPRYVMGWYRQAPGKEREFVAAITFSGGSTYYADSVKGRFTISRDNAKNSVYLQMNSLKPEDTAVYYCAAGASLWRLGLKMGYWGQGTQVTVSS | low polyreactivity
QVQLVESGGGLVQAGGRLRFSCAASGFIFRYYAMGCYRQAPGKERELVAAIDYSGGSTNYADSVKGRFTISRDNAKNTVYLQMNSLKPEETAVYYCNAEYTWHRGYDYWGQGTLVTVSS | low polyreactivity
QVQLVESGGGLVQAGGRLRFSCAASGSIFEYYTMGWYRQAPGKERELVAAISDGGSTYYADSVKGRFTISRDNAKNTVYLQMNSLKPDDTAFYYCAAEYQQDFWVAVDYWGQGTQLTVSS | low polyreactivity
QVQLVESGGGLVQAGGRLRIICAASGYIFRFNAMGWYRQAPGKERELVAVITKSGGSTYYADSVKGRFTISRDNAKNTVYLQMNRLKPEDSAVYYCNADRFYIDYTNTYDSIRDYWGQGTQVTVSS | low polyreactivity
QVQLVESGGGLVQAGGRLRISCAASGRTFQVYTIGWYRQAPGKERELVAAITWNGGRSRYADSVKGRFTISRDNAKNTVYLQMNRLKPEDTAVYYCNAGSTELGWTWELDYWGQGTQVTVSS | high polyreactivity
QVQLVESGGGLVQAGGRLRISCAASGRTFSHNTMGWYRQAPGKERELVAAITGSGASTYYADSVKGRFTISRDNAKNTVYLQMNSLKPEDTAVDYCAKVSRQSWDEYDTWGQGTQVTVSS | low polyreactivity
QVQLVESGGGLVQAGGRLRISCAASGSTFKANAMGWYRQSPGKERELVASIRFSAGSTYYADSVKGRFTISRDTAKNTVYLEMNRLKPEDTAVYYCAAGRHVLKRRYDYWGQGTQVTVSS | low polyreactivity
QVQLVESGGGLVQAGGRLRISCAASGTIFYSYEMVWYRKAPAKERELVAAITQSGSSTYYADSVKGRFTISRDNAKNTVYLQMNSLKPEDTAVYYCAAVSRRHPTMSDYWGQGTQVTVSS | high polyreactivity
QVQLVESGGGLVQAGGRLRLRCAASGHIFYYYTLGWYRQAPGKERELVAGITIGGSTNYADSVKGRFTISRDNAKNTVYLQMNSLKPEDTAVYYCNVVKYVYIYSYWEYYYWGQGTQVTVSS | low polyreactivity
QVQLVESGGGLVQAGGRLRLRCAASGSIFEPNAMGWYRQSPWKERELVATIRDSGGRTYYADSVKGRFTISRDNAKNTVYLQMNSLKPEDTAVYYCAARRYLGWFSYRLYDYWGQGTQVTVSS | high polyreactivity
QVQLVESGGGLVQAGGRLRLRCAASGSIFYAYDRGWYRQAPGKERELVAAINWSGDSTYYADSVKGRFTISRDNAKNTVDLQMNSLKPEDTALYYCAAVSGSGDSGEYDYWGQGTQVTVSS | low polyreactivity
QVQLVESGGGLVQAGGRLRLSCAASGFIFTEYAMGWYRQSPGKERELVAAINSGGRTKYADSVKGRFTISRDNAKNTVFLQMNSLKPEDTAVYYCAARRFPTYDYWGQGTQVTVSS | high polyreactivity
QVQLVESGGGLVQAGGRLRLSCAASGFTFKKNAMGWYRQAPGKERELVAAIRSGTSTKYADSVKGRFTISRDNAKNTVYLQMNSLKPEDTAVYYCAAEEPEYLATWRNRRYDYWGQGTQVTVSS | low polyreactivity
QVQLVESGGGLVQAGGRLRLSCAASGFTFTNYAMGRYRQAPGKERELVAAISWNGGSTYYADSVKGRFTISRDNAKNTVYLQMNSLKPEDTAVYYCNAYDYQYFYGYEYDYWGQGTQVTVSS | high polyreactivity
QVQLVESGGGLVQAGGRLRLSCAASGFTFTPYAMGWYRQAPGTERELVAAISWGDGSTYYADSVKGRFTISRDNAKNTVYLQMNSLKPEDTAVYYCAAYRGPRIYRYDYWGQGTQVTVSS | high polyreactivity
QVQLVESGGGLVQAGGRLRLSCAASGFTFYRYAMGWYRQAPGKERELVAAITDSGDSTYYADSVKGRFTISRDNAKNTVYLQMNSVKPEDTAVYYCNTLVDLDGFEYYYWGQGTQVTVSS | high polyreactivity

— the nanobody polyreactivity screen of Harvey et al. (2022)
